One may read the Kd as the concentration at which binding is half-saturated. A lower Kd goes with higher affinity. Usually IC50 stands for the point on the concentration scale where inhibition reaches its midpoint. Read a low IC50 as greater potency.

We go through 16 molecules from patent US20150044231A1 (Novo Nordisk, published 2015).

The target in experiment [1] is His-FcγRIIB (UniProt P31994). The experiment in a line: SPR (BIAcore T100), Fc variant immobilised, His-FcγR as analyte. Background: SPR reads the build-up and loss of mass on a sensor chip optically.
The target of experiment [2] is His-FcγRIIA (131H) (UniProt P12318). Described as above.
Experiment [3] addresses His-FcγRI (UniProt P12314). The description is as above.
The target in experiment [4] is His-FcγRIIA (131R) (UniProt P12318). The experiment is described as above.
Experiment [5] has as its target His-FcγRIII (158V) (UniProt P08637). Described as above.
In experiment [6] the target is His-FcγRIII (158F) (UniProt P08637). The experiment is described as above.
The target of experiment [7] is T1, human C5a receptor (human, UniProt P21730 1-350).
T1 construct: In the SPA: receptor-carrying membrane fragments of RBL-hC5aR cells; also called hC5aR; C5aRI
T1 sequence: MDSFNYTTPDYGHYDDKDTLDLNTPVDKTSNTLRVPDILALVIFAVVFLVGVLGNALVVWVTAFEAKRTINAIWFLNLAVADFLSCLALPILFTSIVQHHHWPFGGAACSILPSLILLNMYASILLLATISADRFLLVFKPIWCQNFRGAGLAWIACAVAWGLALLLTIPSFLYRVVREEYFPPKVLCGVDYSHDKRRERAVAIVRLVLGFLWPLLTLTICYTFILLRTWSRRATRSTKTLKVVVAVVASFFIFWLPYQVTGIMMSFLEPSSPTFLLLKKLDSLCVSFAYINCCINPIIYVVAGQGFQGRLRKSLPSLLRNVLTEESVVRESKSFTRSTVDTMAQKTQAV
The experiment in a line: SPA, displacement of 125I-hC5a from RBL-hC5aR membranes. As for the experimental part:
(§1) A detailed description of the SPA is provided in U.S. Pat. No. 4,568,649 and protocols provided by the manufacturer (Amersham Biosciences). Briefly, receptor-carrying membrane fragments purified from RBL-hC5aR cells bind to scintillating micro particles coated with wheat germ agglutinin (WGA). […] Specific for the SPA-principle, only radio isotope and particles in immediate proximity of each other will emit light. […] The % displacement was calculated as follows: […]

For experiment [8], the target named is T1, human C5a receptor. The experiment in a line: cell-based or functional assay.
The target in experiment [9] is T1, human C5a receptor. The experiment in a line: SPA, unlabelled hC5a displacing 125I-hC5a from RBL-hC5aR membranes. As for the experimental part: as §1
Experiment [10] deals with T1, human C5a receptor. The experiment in a line: cell-based or functional assay. This is another data set of the same source.
For experiment [11], the target named is T1, human C5a receptor. Briefly: cell-based or functional assay. The source holds these as a separate data set.

Sequence of His-FcγRIIA (131R) (P12318 36-218 H167R limits assumed): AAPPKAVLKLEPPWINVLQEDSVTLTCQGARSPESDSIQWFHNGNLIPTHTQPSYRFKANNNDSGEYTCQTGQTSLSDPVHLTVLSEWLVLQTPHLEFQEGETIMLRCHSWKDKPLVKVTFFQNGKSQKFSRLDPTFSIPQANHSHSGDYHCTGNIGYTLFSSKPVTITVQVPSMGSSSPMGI
Sequence of His-FcγRIIB (P31994 46-217 limits assumed): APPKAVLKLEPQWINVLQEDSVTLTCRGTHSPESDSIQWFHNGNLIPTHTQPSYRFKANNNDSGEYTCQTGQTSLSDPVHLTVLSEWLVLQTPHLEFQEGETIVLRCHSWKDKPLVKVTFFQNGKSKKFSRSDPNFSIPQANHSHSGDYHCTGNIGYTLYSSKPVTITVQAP
Sequence of His-FcγRIIA (131H) (P12318 36-218 limits assumed): as the sequence (P12318 36-218 H167R limits assumed) above, with R132H counted along it
Sequence of His-FcγRI (P12314 16-288 limits assumed): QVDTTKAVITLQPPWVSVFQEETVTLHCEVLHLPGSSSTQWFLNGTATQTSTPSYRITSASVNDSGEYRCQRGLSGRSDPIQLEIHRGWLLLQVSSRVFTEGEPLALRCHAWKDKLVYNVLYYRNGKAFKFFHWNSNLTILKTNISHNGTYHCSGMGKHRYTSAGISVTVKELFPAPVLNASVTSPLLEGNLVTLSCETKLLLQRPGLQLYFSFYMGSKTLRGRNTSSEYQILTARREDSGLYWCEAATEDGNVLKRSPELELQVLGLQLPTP
Sequence of His-FcγRIII (158V) (P08637 17-208 F176V limits assumed): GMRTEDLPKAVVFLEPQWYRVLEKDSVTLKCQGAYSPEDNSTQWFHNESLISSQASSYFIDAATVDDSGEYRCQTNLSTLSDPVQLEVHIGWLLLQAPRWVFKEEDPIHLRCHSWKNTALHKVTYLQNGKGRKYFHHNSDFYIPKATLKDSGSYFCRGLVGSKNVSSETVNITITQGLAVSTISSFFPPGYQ
Sequence of His-FcγRIII (158F) (P08637 17-208 limits assumed): as the sequence (P08637 17-208 F176V limits assumed) above, with V160F counted along it

Regarding “Ref Ab Q variable region on IgG4 (S228P) reference (antibody)”, the dissociation constant Kd in experiment [1] was determined as 1080 nM; in experiment [2] it was 3520 nM; in [3], 2.71 nM; in experiment [4] it was 800 nM.
Take “Ref Ab Q variable region on IgG2/4 V234A, G236A (antibody)”: the equilibrium dissociation constant (Kd) in experiment [1] turned out to be 5340 nM.
In turn, “Ref Ab Q variable region on IgG1 L234A, L235E (antibody)” registered a Kd in experiment [5] of 960 nM.
In experiment [3], “Ref Ab Q variable region on IgG4 (S228P) N297Q (antibody)” gave a Kd of 130 nM.
Same read-out and setting: the same measure for “Ref Ab Q variable region on IgG1 N297Q (antibody)”: 360 nM.
In the case of “Ref Ab Q variable region on IgG1 reference (antibody)”, the Kd in [1] turned out to be 420 nM; in experiment [6], 330 nM; in experiment [2] it was 640 nM; in [3], 0.664 nM; in experiment [4], 950 nM.
Take “Ref Ab Q variable region on IgG1 L234A, L235E, G237A, A330S and P331S (antibody)”: the Kd in experiment [1] is 2100 nM.

B1: 35F24A3 (antibody, V domains shown)
VH: EVKLVESGGGLVKPGGSLKLSCSASGFAFSNYDMSWVRQTPEKRLEWVAAFSSDGYTFYPDSLKGRFTISRDNARNTLYLQMSSLGSEDTALYCCARHADYANYPVMDYWGQGTSVTVSS
VL: DIQMTQSPSSLSASVGDRVTITCRASQGISSWLAWYQQKPEKAPKSLIYAASSLQSGVPSRFSGSGSGTDFTLTISSLQPEDFATYYCQQYNSYPRTFGQGTKVEIKR
notes: Human monoclonal antibody from HumAb mice, purified from hybridoma supernatant
Turning to B1, the IC50 in [7] was 2.97 nM. Moreover, in [8], the “Migration of human neutrophils (in % compared to migration in the absence of antibody)” value is 30%.

B2: human C5a (ligand, UniProt P01031 678-751, looked up)
chain: TLQKKIEEIAAKYKHSVVKKCCYDGACVNNDETCEQRAARISLGPRCIKAFTECCVVASQLRANISHKDMQLGR
notes: C5a is only a fragment of it; also called hC5a
With B2, the half-inhibitory concentration (IC50) in experiment [9] came to 4.1 nM.

B3: 35F32A3 (antibody, V domains shown)
VH: QVQLVESGGGLVRPGRSLRLSCAASGFTFRDYGMHWVRQAPGKSLEWVAVIWFDGINKYYGDSVKGRFTISRDNSKNTLYLQMNSLRAEDTAMYYCVGTYFGPGTTEFFQHWGQGTLVTVSS
VL: EIVLTQSPATLSLSPGERATLSCRASQSVSSYLAWYQQKPGQAPRLLIYDASNRATGIPARFSGSGSGTDFTLTISSLEPEDFAVYYCQQRSNWPTFGPGTKVDIKR
notes: as for B1
B3 had an IC50 in [7] of 0.95 nM. The “Migration of human neutrophils (in % compared to migration in the absence of antibody)” value in experiment [8] came to 11%.

B4: 35F12A2 (antibody, V domains shown)
VH: QVQLVESGGGVVQPGRSLRLSCVASGFTFSNYGMHWVRQAPGKGLEWVAVIWYDGINKYYADSVKGRFTISRDNSKSTLYLQMNSLRAEDTAVYYCAGTYYTSGSSKHFQPWGQGTLVTVSS
VL: EIVLTQSPATLSLSPGERATLSCRASQSVSSYLSWYQQKPGQAPRLLIYDASNRATGIPARFSGSGSGTDFTLTISSLEPEDFAVYYCQQRSNWPTFGPGTKVDIKR
notes: as for B1
Molecule B4 gave a half-maximal inhibitory concentration (IC50) in experiment [7] of 2.04 nM. Moreover, in experiment [8], the “Migration of human neutrophils (in % compared to migration in the absence of antibody)” value turned out to be 19%.

B5: Ref Ab Q variable region on IgG2/IgG4 reference (antibody, part only; not given: Ref Ab Q variable regions, part only)
heavy, part: ASTKGPSVFPLAPCSRSTSESTAALGCLVKDYFPEPVTVSWNSGALTSGVHTFPAVLQSSGLYSLSSVVTVPSSNFGTQTYTCNVDHKPSNTKVDKTVERKCCVECPPCPAPPVAGPSVFLFPPKPKDTLMISRTPEVTCVVVDVSQEDPEVQFNWYVDGVEVHNAKTKPREEQFNSTYRVVSVLTVLHQDWLNGKEYKCKVSNKGLPSSIEKTISKAKGQPREPQVYTLPPSQEEMTKNQVSLTCLVKGFYPSDIAVEWESNGQPENNYKTTPPVLDSDGSFFLYSRLTVDKSRWQEGNVFSCSVMHEALHNHYTQKSLSLSLGK
For the molecule B5, the equilibrium dissociation constant (Kd) in experiment [1] amounted to 1830 nM; in experiment [2], 1030 nM.

B6: Ref Ab Q variable region on IgG4 (S228P) E233P, F234V, L235A (antibody, part only; not given: Variable regions of Ref Ab Q, not shown: another chain or arm of the molecule)
constant: ASTKGPSVFPLAPCSRSTSESTAALGCLVKDYFPEPVTVSWNSGALTSGVHTFPAVLQSSGLYSLSSVVTVPSSSLGTKTYTCNVDHKPSNTKVDKRVESKYGPPCPPCPAPPVAGGPSVFLFPPKPKDTLMISRTPEVTCVVVDVSQEDPEVQFNWYVDGVEVHNAKTKPREEQFNSTYRVVSVLTVLHQDWLNGKEYKCKVSNKGLPSSIEKTISKAKGQPREPQVYTLPPSQEEMTKNQVSLTCLVKGFYPSDIAVEWESNGQPENNYKTTPPVLDSDGSFFLYSRLTVDKSRWQEGNVFSCSVMHEALHNHYTQKSLSLSLGK
For the molecule B6, the dissociation constant (Kd) in experiment [3] is 380 nM.

B7: 32F3A6 GL (antibody, human IgG1, V domains shown)
VH: EVQLVESGGGLVQPGGSLRLSCAASGFTFSSYVMHWVRQATGKGLEWVSAIDTGGGTYYADSVKGRFTISRENAKNSLYLQMNSLRAGDTAVYYCARDYYYYASGSYYKAFDIWGQGTMVTVSS
VL: EIVLTQSPGTLSLSPGERATLSCRASQSVSSRYLAWYQQKPGQAPRLLIYGASSRATGIPDRFSGSGSGTDFTLTISRLEPEDFAVYYCQQYGSPLTFGQGTKLEIKR
In the case of B7, the “IC50, Neutrophil migration (Chemotaxis) Assay” value in [10] was 1 µg/mL. Moreover, in experiment [11], the “IC50 CD11b up-regulation” value turned out to be 0.7 µg/mL, the “IC50 CD62L down-regulation” value amounted to 0.5 µg/mL and the “IC50 Calcium-flux assay” value was 1.8 µg/mL.

B8: 32F3A6 (antibody, V domains shown)
VH: EVQLVQSGGGLVHPGGSLRLSCAGSGFTFSSYVMHWVRQAPGKGLEWVSAIDTGGGTYYADSVKGRFTISRDNAKNSLYLQMNSLRAEDMAVYYCARDYYYYASGSYYKAFDIWGQGTMVTVSS
VL: EIVLTQSPGTLSLSPGERATLSCRASQSVSSRYLAWYQQKPGQAPRLLIYGASSRATGIPDRFSGSGSGTDFTLTISRLEPEDFAVYYCQQYGSPLTFGQGTKLEIKR
notes: as for B1
Consider B8, for which the 50% inhibitory concentration (IC50) in [7] was determined as 1.9 nM. The “Migration of human neutrophils (in % compared to migration in the absence of antibody)” value in experiment [8] came to 2%.

B9: Ref Ab Q variable region on IgG2 reference (antibody, part only; not given: Variable regions of Ref Ab Q, not shown: another chain or arm of the molecule)
constant: ASTKGPSVFPLAPCSRSTSESTAALGCLVKDYFPEPVTVSWNSGALTSGVHTFPAVLQSSGLYSLSSVVTVPSSNFGTQTYTCNVDHKPSNTKVDKTVERKCCVECPPCPAPPVAGPSVFLFPPKPKDTLMISRTPEVTCVVVDVSHEDPEVQFNWYVDGVEVHNAKTKPREEQFNSTFRVVSVLTVVHQDWLNGKEYKCKVSNKGLPAPIEKTISKTKGQPREPQVYTLPPSREEMTKNQVSLTCLVKGFYPSDIAVEWESNGQPENNYKTTPPMLDSDGSFFLYSKLTVDKSRWQQGNVFSCSVMHEALHNHYTQKSLSLSPGK
For B9, the dissociation constant (Kd) in experiment [5] turned out to be 1500 nM; in experiment [1], 1540 nM; in experiment [2] it was 220 nM; in [4], 2790 nM.
